These results are taken from US20020147129A1.

Usually IC50 stands for the concentration at which inhibition is half-maximal.

Test [1] addresses embryonic chicken Ang II receptor (chicken). The experiment in a line: competition for 125I[Sar1Ile8]Ang II binding, E13 chicken chorioallantoic membranes.
Test [2] deals with embryonic chicken AT4 receptor (chicken). The experiment in a line: competition for [125I]Ang IV binding, E13 chicken chorioallantoic membranes.
In test [3] the target is angiotensin AT4 receptor of Macaca fascicularis brain (Macaca fascicularis). Kind of test: competition for [125I]Ang IV binding, monkey prefrontal cortical sections.
Test [4] addresses AT4 receptor of sheep central nervous system (sheep). Kind of test: competition for 125I-LVV-haemorphin-7 binding, sheep cerebellar cortical membranes.
For test [5] the target is unchanged. Kind of test: competition for [125I]Ang IV binding, sheep cerebellar cortical membranes.

Sequence of embryonic chicken Ang II receptor (chicken) (P79785 whole entry): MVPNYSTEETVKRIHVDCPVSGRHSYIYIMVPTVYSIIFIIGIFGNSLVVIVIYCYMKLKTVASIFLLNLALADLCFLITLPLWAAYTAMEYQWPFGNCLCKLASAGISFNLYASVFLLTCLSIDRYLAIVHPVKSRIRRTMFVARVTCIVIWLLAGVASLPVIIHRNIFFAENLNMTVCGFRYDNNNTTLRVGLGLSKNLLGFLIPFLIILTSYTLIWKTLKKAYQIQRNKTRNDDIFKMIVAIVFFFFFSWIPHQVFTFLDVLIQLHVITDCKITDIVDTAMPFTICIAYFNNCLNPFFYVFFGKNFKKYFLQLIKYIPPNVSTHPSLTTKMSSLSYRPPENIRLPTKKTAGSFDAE

Turning to CGP 42112 (peptide), in test [1], the IC50 worked out at 180 nM. Further, the concentration effective at competing for 50% of the sites in test [2] was 0.5 µM.

Consider “angiotensin II (from UniProt P01019 25-32) (peptide)”, for which the IC50 stood at 730 nM in test [3], 100 nM in test [1], 1600 nM in test [4] and 2000 nM in test [5].

As to “angiotensin III (from UniProt P01019 26-32) (peptide)”, the IC50 worked out at 80 nM in test [3], 77 nM in test [4] and 6.9 nM in test [5].
